Results from PMC9294231, “gC1qR/C1qBP/HABP-1: Structural Analysis of the Trimeric Core Region, Interactions With a Novel Panel of Monoclonal Antibodies, and Their Influence on Binding to FXII” (Frontiers in Immunology, 2022).
Values belong to the molecule of their own block, whether it stands above or below them.

Key:
gC1qR-D1 (human) [1] = target: gC1qR-D1 (human) (UniProt Q07021); assay: SEC; gel filtration on Superdex S200 in PBS (pH 7.4); solution behaviour shown in Figure S1 (not shown to me)
wild-type gC1qR (human) [2] = target: wild-type gC1qR (human) (UniProt Q07021); assay: SEC; analytical gel filtration (Superdex 200 Increase 10/300 GL) of purified FXII, wild-type gC1qR and gC1qR/FXII in a Zn++-containing buffer, compared to size standards
gC1qR-D2 (human) [3] = target: gC1qR-D2 (human) (UniProt Q07021); assay: SEC; gel filtration on Superdex S200 in PBS (pH 7.4); solution behaviour shown in Figure S1 (not shown to me)
[4] = target: gC1qR-D2 (loop 2 deletion mutant) (human) (UniProt Q07021); assay: SEC; analytical gel filtration of purified gC1qR proteins on Superdex 200 Increase 10/300 GL, compared to size standards (670, 66, 13 kDa)
[5] = target: gC1qR-DD-avi, enzymatically biotinylated (human) (UniProt Q07021); assay: SPR; enzymatically biotinylated gC1qR-avi or gC1qR-DD-avi captured to 100 RU on an SA chip; FXII or FXIIa injected 1.6 to 800 nM; 25°C, HBS-T with 50 µM ZnCl2; ligand heterogeneity model with two independent binding sites; apparent
[6] = target: gC1qR-avi, enzymatically biotinylated (human) (UniProt Q07021); assay: as above
[7] = target: T1, wild-type gC1qR (residues 74-282) (human, UniProt Q07021 74-282); assay: SEC; gel filtration on Superdex S200 in PBS (pH 7.4); solution behaviour shown in Figure S1 (not shown to me)
T1 construct: gC1qR/C1qBP/HABP-1, human, residues 74-282 (the mature form of the 282-residue pre-pro protein); Expressed from vector pT7HMT; the tag was removed with TEV protease; also called C1qBP; HABP-1; source: E. coli BL21(DE3), purified (NiNTA, TEV digestion, gel filtration Superdex S200)
T1 sequence (looked up): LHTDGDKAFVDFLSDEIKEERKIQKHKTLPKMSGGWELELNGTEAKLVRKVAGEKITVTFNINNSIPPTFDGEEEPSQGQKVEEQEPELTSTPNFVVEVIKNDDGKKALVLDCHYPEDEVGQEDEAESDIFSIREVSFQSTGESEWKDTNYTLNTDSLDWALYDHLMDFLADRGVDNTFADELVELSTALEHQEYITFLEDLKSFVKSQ

wild-type gC1qR (human) [8] = target: wild-type gC1qR (human) (UniProt Q07021); assay: SEC; analytical gel filtration of purified gC1qR proteins on Superdex 200 Increase 10/300 GL, compared to size standards (670, 66, 13 kDa)
[9] = target: HKH-20 HKH-20 peptide (Homo sapiens) (UniProt P01042); assay: ITC; settings: cited from earlier work
[10] = target: gC1qR-DD (double loop deletion mutant) (human) (UniProt Q07021); assay: SEC; analytical gel filtration of purified gC1qR proteins on Superdex 200 Increase 10/300 GL, compared to size standards (670, 66, 13 kDa)
[11] = target: gC1qR-D1 (loop 1 deletion mutant) (human) (UniProt Q07021); assay: as above
gC1qR-DD (human) = gC1qR-DD (human) (UniProt Q07021); assay: SEC; gel filtration on Superdex S200 in PBS (pH 7.4); solution behaviour shown in Figure S1 (not shown to me)
gC1qR-D1 (human) [12] = target: gC1qR-D1 (human) (UniProt Q07021); assay: SPR; gC1qR proteins amine-coupled to a CMD200M chip (gC1qR 361 RU, D1 487 RU, D2 360 RU, DD 874 RU); HKH-20 injected 46.9 nM to 10 µM; 25°C, HBS-T (20 mM HEPES pH 7.4, 140 mM NaCl, 0.005% Tween-20); affinity (dose/response) model, apparent KD
gC1qR-D2 (human) [13] = target: gC1qR-D2 (human) (UniProt Q07021); assay: as above
[14] = target: T1, wild-type gC1qR (residues 74-282); assay: as above; settings: both partners purified

- stoichiometry N (gC1qR-D1 (human) [1]): 3
Molecule: gC1qR-D1 (from UniProt Q07021 74-138; Q07021 164-282) (natural protein)

- stoichiometry N (FXII monomer per gC1qR trimer) (wild-type gC1qR (human) [2]): 1
Molecule: Factor XII (native) (natural protein)

- stoichiometry N (gC1qR-D2 (human) [3]): 3
Molecule: gC1qR-D2 (from UniProt Q07021 74-189; Q07021 202-282) (natural protein)

- stoichiometry N [4]: 3
Molecule: gC1qR-D2 (loop 2 deletion mutant) (from UniProt Q07021 74-282) (domain or fragment)

- KD-1 (first binding site) [5]: 1.69 nM
- KD-2 (second binding site) [5]: 26.4 nM
- ka-1 (first binding site) [5]: 674000 M⁻¹ s⁻¹
- ka-2 (second binding site) [5]: 34800 M⁻¹ s⁻¹
- kd-1 (first binding site) [5]: 0.00114 s⁻¹
- kd-2 (second binding site) [5]: 0.00091 s⁻¹
- KD-1 (first binding site) [6]: 4.85 nM
- KD-2 (second binding site) [6]: 97.6 nM
- ka-1 (first binding site) [6]: 676000 M⁻¹ s⁻¹
- ka-2 (second binding site) [6]: 23700 M⁻¹ s⁻¹
- kd-1 (first binding site) [6]: 0.00316 s⁻¹
- kd-2 (second binding site) [6]: 0.0023 s⁻¹
Molecule: native coagulation factor XII (FXII) (natural protein)

- stoichiometry N [7]: 3
Molecule: wild-type gC1qR (residues 74-282) (from UniProt Q07021 74-282) (natural protein; other documents disagree on this pair)

- stoichiometry N (wild-type gC1qR (human) [8]): 3
Molecule: wild-type gC1qR (from UniProt Q07021 74-282) (domain or fragment; other documents disagree on this pair)

- KD-1 (first binding site) [5]: 0.12 nM
- KD-2 (second binding site) [5]: 178 nM
- ka-1 (first binding site) [5]: 1.13e+06 M⁻¹ s⁻¹
- ka-2 (second binding site) [5]: 63700 M⁻¹ s⁻¹
- kd-1 (first binding site) [5]: 0.000147 s⁻¹
- kd-2 (second binding site) [5]: 0.0112 s⁻¹
- KD-1 (first binding site) [6]: 0.27 nM
- KD-2 (second binding site) [6]: 134 nM
- ka-1 (first binding site) [6]: 408000 M⁻¹ s⁻¹
- ka-2 (second binding site) [6]: 48200 M⁻¹ s⁻¹
- kd-1 (first binding site) [6]: 9e-05 s⁻¹
- kd-2 (second binding site) [6]: 0.0063 s⁻¹
Molecule: activated Factor XIIa (FXIIa) (enzyme)

Molecule: gC1qR (from UniProt Q07021)
- Kd [9]: 6300 nM

- stoichiometry N [10]: 3
Molecule: gC1qR-DD (double loop deletion mutant) (from UniProt Q07021 74-282) (domain or fragment)

- stoichiometry N [11]: 3
Molecule: gC1qR-D1 (loop 1 deletion mutant) (from UniProt Q07021 74-282) (domain or fragment)

- stoichiometry N (gC1qR-DD (human)): 3
Molecule: gC1qR-DD (from UniProt Q07021 74-138; Q07021 164-189; Q07021 202-282) (natural protein)

- Kd (gC1qR-D1 (human) [12]): 10000 nM
- Kd (gC1qR-D2 (human) [13]): 10000 nM
- Kd [14]: 8700 nM
B1: peptide HKH-20 (peptide)
peptide: HKHGHGHGKHKNKGKKNGKH
notes: The discussion speaks of peptides derived from HMWK residues 493-516 in general; also called HKH-20 peptide; source: synthetic peptide (GenScript)
